The series deals with MS2 coat protein. Put plainly: apparent KD of MS2 coat protein; designed switch direction (-1 OFF switch, 1 ON switch): 1; higher = weaker reporter binding. In outline:
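Apparent KD, taken as the median over clusters for each design, was obtained by curve-fitting normalised cluster fluorescence. Designed RNA switches had been transcribed on Illumina chips by stalled E. coli RNA polymerase and titrated with SNAP-549-labelled MS2 coat protein, doubling from 0.7 or 1.5 nM to 3 µM.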

Setting [1] is: input ligand: microRNA oligo, concentration not stated.
[2] abbreviates: Eterna round: R95, input ligand: FMN 200 uM.
[3] abbreviates: Eterna round: R95, input ligand: microRNA oligo, concentration not stated.
Setting [4] is: Eterna round: R95, input ligand: none.

The text below walks through data of the supplement of paper PMC9170038.

As to “GGAUGAUAAAUAGGAUAUUAAUUGUAAUUAGGUUAAGAAGGAUUAAUGAUUUAAACGACCAGUUACAUGAGGAUCACCCAUGUU [JR_SSNG1_Sub088] (Eterna round: R96, puzzle: Same State NG 1)”, under setting [1], the “apparent KD of MS2 coat protein” value was 108 nM.

For the sequence “UAAGUAUGUUGAGGAUAUUAUGUUUAGUGUGAUGACAUGAGGAUCACCCAUGUGUUAUGAGUUUUUAAGAAGGCAACAUACUUA [JR_SSNG2_Sub091] (Eterna round: R96, puzzle: Same State NG 2)”, the “apparent KD of MS2 coat protein” value runs as follows: (input ligand: FMN 200 uM) 35.1 nM; under setting [1], 41.7 nM; (input ligand: none) 55.2 nM.

With “UCGGGCUCUGCUCGUCUUGAGUUGCUCCCACAUGAGGAUCACCCAUGUAGUGUGCCUAUCAGCGCGCGGGUGACUUU [Riesonso] (puzzle: Sensor for hsa-mir-208a)”, the “apparent KD of MS2 coat protein” value under setting [2] came to 328 nM, the “apparent KD of MS2 coat protein” value under setting [3] is 133 nM and the “apparent KD of MS2 coat protein” value under setting [4] amounted to 350 nM.

As to “GCUCGCACGAUGACCCACAUGAGGAUCACCCAUGUGUGUGGGCAGGAUAUCUAGAUUAAGGAUGUAGAGAAGGGUUGAGCGAGC [SameState NG3 #24] (Eterna round: R96, puzzle: Same State NG 3)”, the “apparent KD of MS2 coat protein” value by setting is: (input ligand: FMN 200 uM) 513 nM; under setting [1], 133 nM; (input ligand: none) 138 nM.

Take “UUGAAUAAUUAAGGAUAUCGAGUACAUAUGUUAAACAUGAGGAUCACCCAUGUGGGUUGCGGUAUCGAGAAGGUAAAAGACAAG [Mat - Same State NG 2 - JL mod - D59] (Eterna round: R96, puzzle: Same State NG 2)”: the “apparent KD of MS2 coat protein” value is, setting by setting: (input ligand: FMN 200 uM) 31.2 nM; under setting [1], 25.6 nM; (input ligand: none) 42 nM.

With “UUGAAGACGGACAAGGAUAUGUCAAAGGAAACAUGAGGAUCACCCAUGUGGAGAUUGGAGAAGAAACAGAAGGUGUACGGAGAGA [JR_SS2_Sub008] (puzzle: Same State 2)”, the “apparent KD of MS2 coat protein” value is, setting by setting: under setting [2], 27.5 nM; under setting [3], 13.6 nM; under setting [4], 21.4 nM.

For “UCUUGGUUUUUGCUCGUUUUUUGUGUUGAACAUGAGGAUCACCCAUGUAUUGUACAAUCCGGUUUGAUGAUGGUCCA [JMF 47] (puzzle: Sensor for hsa-mir-208a)”, the “apparent KD of MS2 coat protein” value reads like this: under setting [2], 81.7 nM; under setting [3], 58.3 nM; under setting [4], 92.3 nM.

For the sequence “GGAGCCGGCCUAGGAUAUUUCAUAAAAAUACAUGAGGAUCACCCAUGUAGGCCAGAAGGCCUUGGGAAGAAGGAGGUCGGCUCC [Loop Effect - U29] (Eterna round: R96, puzzle: Same State NG 2)”, the “apparent KD of MS2 coat protein” value came out at 10.7 nM (input ligand: FMN 200 uM), 15 nM under setting [1] and 17.3 nM (input ligand: none).

Consider “GCGAUAUGAUGUUACAUGAGGAUCACCCAUGUAGCGAUAGCUAAGGAUAUUUGAAAGGGAGGAGAAGAGAAGGUAGGAUCACGC [AK SSNG3-V2-22.2] (Eterna round: R96, puzzle: Same State NG 3)”, for which the “apparent KD of MS2 coat protein” value is, setting by setting: (input ligand: FMN 200 uM) 24.6 nM; under setting [1], 18.6 nM; (input ligand: none) 20.3 nM.

Take “GGUCGGACUCACAUGAGGAUCACCCAUGUUGCGGAAACGCGACAGGAUAUCUGUCCGAAAAGGUCAGAGAAGGGUCAACCGACC [Fiskers NG3ss - 58] (Eterna round: R96, puzzle: Same State NG 3)”: the “apparent KD of MS2 coat protein” value was determined as 853 nM (input ligand: FMN 200 uM), 431 nM under setting [1] and 504 nM (input ligand: none).

Consider “UUAAUUUACUGAGGAUAUCGUGUCGACUGAGUUGACAUGAGGAUCACCCAUGUGAGAAGUGGUAUCGAGAAGGCAGUUUUCAUA [JR_SSNG2_Sub024] (Eterna round: R96, puzzle: Same State NG 2)”, for which the “apparent KD of MS2 coat protein” value was 17.2 nM (input ligand: FMN 200 uM), 59 nM under setting [1] and 89.6 nM (input ligand: none).

Take “GCGAAGAGGUAAGGAUAUUCAUGGCAUAGACAUGAGGAUCACCCAUGUAGGAGACGAAUUAGAAGGAAGAAGGUACCAGGACGC [AK SSNG2-V2-18] (Eterna round: R96, puzzle: Same State NG 2)”: the “apparent KD of MS2 coat protein” value was found to be 137 nM (input ligand: FMN 200 uM), 111 nM under setting [1] and 187 nM (input ligand: none).

Regarding “GUGGUCAGACAUGAGGAUCACCCAUGUGGAAUAAAUAAGGGUUAGGAUAUCGAAUAUAGGAUAUACGAGAAGGGAUGGUUGGUG (Eterna round: R96, puzzle: Same State NG 3)”, the “apparent KD of MS2 coat protein” value reads like this: (input ligand: FMN 200 uM) 135 nM; under setting [1], 95.3 nM; (input ligand: none) 109 nM.

Regarding “CAUUGGACAUCCAGUGAGACAUGAGGAUCACCCAUGUAGGCGCAGGAUAUGCGGGUUCGGUGCUCGCAGAAGGGUGAAGAAAAC [Veenin] (Eterna round: R96, puzzle: Same State NG 3)”, the “apparent KD of MS2 coat protein” value worked out at 129 nM (input ligand: FMN 200 uM), 98.2 nM under setting [1] and 114 nM (input ligand: none).

For “CAGCGCUGUCGAGAGGAUAUGCGGUGAUGGACAUGAGGAUCACCCAUGUUAGCGACAGCAUCACGGCAGAAGGCUCUACCGCUGC [Soteed Omei mod 18] (Eterna round: R96, puzzle: Same State 2)”, the “apparent KD of MS2 coat protein” value was determined as 19.9 nM (input ligand: FMN 200 uM), 24.1 nM under setting [1] and 60.7 nM (input ligand: none).

For the sequence “GGUAGGUUACUACCAAACAUGAGGAUCACCCAUGUAAGUGGGAAGGAUAUGGUACCUAUUUGGUACCAGAAGGUCCAAUUAAUU [Fiskers NG3ss - 3] (Eterna round: R96, puzzle: Same State NG 3)”, the “apparent KD of MS2 coat protein” value (input ligand: FMN 200 uM) was found to be 228 nM, the “apparent KD of MS2 coat protein” value under setting [1] was 111 nM and the “apparent KD of MS2 coat protein” value (input ligand: none) turned out to be 720 nM.

Turning to “CCAGGACAUGAGGAUCACCCAUGUGCUUAAUAUGGAGAAUCUCAGGAUAUCAUGAGGAUCACCCAUGAGAAGGGAGAUCCGAGG (Eterna round: R96, puzzle: Same State NG 3)”, the “apparent KD of MS2 coat protein” value runs as follows: (input ligand: FMN 200 uM) 144 nM; under setting [1], 118 nM; (input ligand: none) 152 nM.

For “AGUCCAGCAUGAGCUGGACAAAAGCAUGUACAUGAGGAUCACCCAUGUUCAUGUACAAGCUUUUUGCUCGUCAAAAG [Mat - hsa-mir-208a - Mod of JL - 70] (puzzle: Sensor for hsa-mir-208a)”, the “apparent KD of MS2 coat protein” value under setting [2] was 225 nM, the “apparent KD of MS2 coat protein” value under setting [3] is 19.6 nM and the “apparent KD of MS2 coat protein” value under setting [4] came to 320 nM.

For the sequence “CGCAUCCUUGUUACAUGAGGAUCACCCAUGUUUUCGAGUGGAGAGGAUAUCGUAACAGUAUUUUUCGAGAAGGCUCUAUAGUAU [JR_SSNG3_Sub081] (Eterna round: R96, puzzle: Same State NG 3)”, the “apparent KD of MS2 coat protein” value came out at 52.1 nM (input ligand: FMN 200 uM), 39 nM under setting [1] and 57.3 nM (input ligand: none).

On to “ACUAUUAAUGCAGGAUAUGAUUAACAUGAGGAUCACCCAUGUGGUGUUGUGAGUAAGGAGAGUGAUCAGAAGGGCAUUUUUUUU [JMF's solution 37] (Eterna round: R96, puzzle: Same State NG 2)”, for which the “apparent KD of MS2 coat protein” value reads like this: (input ligand: FMN 200 uM) 992 nM; under setting [1], 466 nM; (input ligand: none) 629 nM.
